# Experimental data as given in patent US20100291075A1 (THERACLONE SCIENCES, published 2010).
# Target: recombinant GPI-linked rhesus GM-CSF on the surface of transiently transfected 293 cells (rhesus)
binder,measurement,value
"1783J22 human monoclonal antibody (whole IgG) (antibody, V domains shown) VH: EVQLLQSGGGLTHPGGSLRLSCAASGFPFHKYTMTWVRQPPGKGLEWVSSVSGVNGKTYYSPSVRGRAIVSRDDSNSMLFLEIKNMTAGDTALYFCAKGPGGHLHYYYGLDVWGHGTSVTVSS VL: DIQMTQSPSSLSASIGDRVTISCRASQAINNYVAWFQQSAGKAPKSLIYGASNLQPGVPPRFSGSVSGTNFSLTIDGLQSEDFATYFCQNYFGYPLTFGGGTTLEIKR",EC50 (read off the curve),~0.05 µg/mL
